Target: T1, SARS-CoV-2 Spike S1+S2 ECD, his Tag protein (SARS-CoV-2, Wuhan-Hu-1, UniProt P0DTC2)
T1 construct: also called full-length S protein; full-length S-his; source: bought: Sino Biological
Test: ELISA
Conditions: both partners purified

B1: P4A1 (antibody, V domains shown)
VH: EVQLVESGGGLIQPGGSLRLSCAASGFIVSSNYMSWVRQAPGKGLEWVSIIYSGGSTFYADSVKGRFTISRDNSKNTLYLQMNSLRVEDTAVYYCARDLQELGSLDYWGQGTLVTVSS
VL: DIQMTQSPSSVSASVGDRVTITCRASQGISSWLAWYQQKPGKAPKLLIYAASSLQSGVPSRFSGSGSGTDFTLTISSLQPEDFATYYCQEANSFPYTFGQGTKLEIK
notes: also called P4A1 (IgG1); IgG1 form P4A1
  binding result: binds

Source: publication PMC8113581 (Nature Communications, 2021)
